Data on four proteins can be found in publication PMC6007550 (Nucleic Acids Research, 2018).

The data set deals with the molecule itself. Briefly: crystal structure.

B1: Sin R54E/I113V catalytic domain (residues 1-128) (domain or fragment, UniProt P20384 1-128, looked up)
chain: MIIGYARVSSLDQNLERQLENLKTFGAEKIFTEKQSGKSIENRPILQKALNFVEMGDRFIVESIDRLGRNYNEVIHTVNYLKDKEVQLMITSLPMMNEVIGNPLLDKFMKDLVIQILAMVSEQERNES
modifications: selenomethionine in place of methionine
B1: the stoichiometry N (as a rule, a count of units in the complex or per binding partner) came to 4.

B2: Sin R54E/T77I/I100T/Q115R catalytic domain (residues 1-128) (domain or fragment, UniProt P20384 1-128, looked up)
chain: MIIGYARVSSLDQNLERQLENLKTFGAEKIFTEKQSGKSIENRPILQKALNFVEMGDRFIVESIDRLGRNYNEVIHIVNYLKDKEVQLMITSLPMMNEVTGNPLLDKFMKDLIIRILAMVSEQERNES
modifications: selenomethionine in place of methionine
On to B2, for which the “stoichiometry N” value came out at 4.

B3: Sin R54E/I100T catalytic domain (residues 1-128) (domain or fragment, UniProt P20384 1-128, looked up)
chain: MIIGYARVSSLDQNLERQLENLKTFGAEKIFTEKQSGKSIENRPILQKALNFVEMGDRFIVESIDRLGRNYNEVIHTVNYLKDKEVQLMITSLPMMNEVTGNPLLDKFMKDLIIQILAMVSEQERNES
modifications: selenomethionine in place of methionine
With B3, the “stoichiometry N” value came to 4.

B4: Sin R54E/I100T/Q115R catalytic domain (residues 1-128) (domain or fragment, UniProt P20384 1-128, looked up)
chain: MIIGYARVSSLDQNLERQLENLKTFGAEKIFTEKQSGKSIENRPILQKALNFVEMGDRFIVESIDRLGRNYNEVIHTVNYLKDKEVQLMITSLPMMNEVTGNPLLDKFMKDLIIRILAMVSEQERNES
modifications: selenomethionine in place of methionine
Turning to B4, the “stoichiometry N” value stood at 4.
